How the values were obtained:
Assay in all cases: Flag IP of Flag-SHARPIN from WM115 lysate, on-bead tryptic digestion, LC/MS-MS
PMEL = target: T1, PMEL (human, UniProt P40967 25-661, limits assumed)
T1 construct: endogenous protein co-purified from WM115 lysate
T1 sequence (looked up): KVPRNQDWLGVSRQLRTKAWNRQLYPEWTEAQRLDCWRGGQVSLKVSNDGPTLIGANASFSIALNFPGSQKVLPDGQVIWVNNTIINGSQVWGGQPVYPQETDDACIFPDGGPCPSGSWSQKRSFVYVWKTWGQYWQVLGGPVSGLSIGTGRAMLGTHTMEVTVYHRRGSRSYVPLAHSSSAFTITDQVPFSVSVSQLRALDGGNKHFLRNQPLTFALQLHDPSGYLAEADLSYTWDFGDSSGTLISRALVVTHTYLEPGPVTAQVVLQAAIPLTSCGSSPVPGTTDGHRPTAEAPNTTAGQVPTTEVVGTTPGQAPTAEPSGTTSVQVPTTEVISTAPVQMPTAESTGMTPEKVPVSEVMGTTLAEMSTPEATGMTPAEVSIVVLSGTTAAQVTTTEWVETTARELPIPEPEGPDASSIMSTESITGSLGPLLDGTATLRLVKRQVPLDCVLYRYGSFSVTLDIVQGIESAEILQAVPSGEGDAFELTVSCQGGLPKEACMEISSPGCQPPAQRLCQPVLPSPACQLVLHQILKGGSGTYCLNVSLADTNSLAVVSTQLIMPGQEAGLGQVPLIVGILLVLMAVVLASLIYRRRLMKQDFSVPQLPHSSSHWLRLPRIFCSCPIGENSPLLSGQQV
In short: (§1)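 WM115 cells transfected with Flag-SHARPIN or empty plasmid; lysed in 1% Triton X-100 buffer (50 mM Tris-HCl pH7.4, 150 mM NaCl, 1 mM EDTA). Lysates pre-cleared 1 h at 4° C, immunoprecipitated on FLAG-M2 agarose overnight at 4° C, washed, then digested with trypsin on-bead for mass spectrometry.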

RNF31 = target: T2, RNF31 (human, UniProt Q96EP0 1-1072)
T2 construct: endogenous protein co-purified from WM115 lysate
T2 sequence (looked up): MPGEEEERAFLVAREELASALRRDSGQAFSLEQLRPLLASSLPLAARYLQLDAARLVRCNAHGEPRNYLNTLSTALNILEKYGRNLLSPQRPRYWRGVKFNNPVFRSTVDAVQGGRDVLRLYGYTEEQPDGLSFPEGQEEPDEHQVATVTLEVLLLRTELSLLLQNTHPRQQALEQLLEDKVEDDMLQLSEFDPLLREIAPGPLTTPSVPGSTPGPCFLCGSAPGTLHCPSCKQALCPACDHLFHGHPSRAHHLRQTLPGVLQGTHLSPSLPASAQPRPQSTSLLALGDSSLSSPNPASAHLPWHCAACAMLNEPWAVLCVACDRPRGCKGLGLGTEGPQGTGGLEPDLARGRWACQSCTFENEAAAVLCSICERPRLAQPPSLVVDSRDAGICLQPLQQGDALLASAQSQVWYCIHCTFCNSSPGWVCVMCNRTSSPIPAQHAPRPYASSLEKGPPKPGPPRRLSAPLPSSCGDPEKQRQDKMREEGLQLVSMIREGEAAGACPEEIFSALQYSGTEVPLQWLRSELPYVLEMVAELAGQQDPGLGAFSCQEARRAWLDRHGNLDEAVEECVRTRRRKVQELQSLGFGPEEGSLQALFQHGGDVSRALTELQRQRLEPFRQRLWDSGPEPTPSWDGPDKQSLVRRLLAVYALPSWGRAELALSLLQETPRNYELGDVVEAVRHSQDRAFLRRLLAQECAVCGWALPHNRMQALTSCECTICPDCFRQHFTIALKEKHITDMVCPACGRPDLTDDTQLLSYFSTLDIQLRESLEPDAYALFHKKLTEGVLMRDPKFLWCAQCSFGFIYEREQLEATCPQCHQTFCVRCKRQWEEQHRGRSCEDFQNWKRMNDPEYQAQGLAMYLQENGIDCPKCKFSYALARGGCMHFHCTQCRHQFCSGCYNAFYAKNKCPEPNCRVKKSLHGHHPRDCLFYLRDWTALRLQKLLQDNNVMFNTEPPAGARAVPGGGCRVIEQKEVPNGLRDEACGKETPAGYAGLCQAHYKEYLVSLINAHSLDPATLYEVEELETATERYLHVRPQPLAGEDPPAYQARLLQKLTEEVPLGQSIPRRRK
In short: as §1

HSPA5 = target: T3, HSPA5 (human, UniProt P11021 19-654)
T3 construct: endogenous protein co-purified from WM115 lysate
T3 sequence (P11021 19-654 limits assumed): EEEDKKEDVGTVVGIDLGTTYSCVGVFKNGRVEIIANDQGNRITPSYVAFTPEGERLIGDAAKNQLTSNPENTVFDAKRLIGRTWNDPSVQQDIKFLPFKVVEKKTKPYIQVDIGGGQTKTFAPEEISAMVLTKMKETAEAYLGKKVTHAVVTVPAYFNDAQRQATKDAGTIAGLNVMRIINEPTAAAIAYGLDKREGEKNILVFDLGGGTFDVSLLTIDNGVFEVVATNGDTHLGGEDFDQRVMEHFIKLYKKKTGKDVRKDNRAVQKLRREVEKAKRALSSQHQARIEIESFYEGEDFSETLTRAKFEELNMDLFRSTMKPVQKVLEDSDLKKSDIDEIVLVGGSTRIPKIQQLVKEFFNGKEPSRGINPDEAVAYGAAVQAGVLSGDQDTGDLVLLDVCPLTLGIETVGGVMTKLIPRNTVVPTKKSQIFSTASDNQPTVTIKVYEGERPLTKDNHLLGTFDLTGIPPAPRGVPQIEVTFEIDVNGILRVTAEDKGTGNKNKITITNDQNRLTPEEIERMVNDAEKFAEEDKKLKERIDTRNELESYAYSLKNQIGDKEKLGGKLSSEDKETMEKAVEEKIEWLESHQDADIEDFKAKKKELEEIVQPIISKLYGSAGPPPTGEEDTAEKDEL
In short: as §1

PARP1 = target: T4, PARP1 (human, UniProt P09874 2-1014)
T4 construct: endogenous protein co-purified from WM115 lysate
T4 sequence (P09874 2-1014 limits assumed): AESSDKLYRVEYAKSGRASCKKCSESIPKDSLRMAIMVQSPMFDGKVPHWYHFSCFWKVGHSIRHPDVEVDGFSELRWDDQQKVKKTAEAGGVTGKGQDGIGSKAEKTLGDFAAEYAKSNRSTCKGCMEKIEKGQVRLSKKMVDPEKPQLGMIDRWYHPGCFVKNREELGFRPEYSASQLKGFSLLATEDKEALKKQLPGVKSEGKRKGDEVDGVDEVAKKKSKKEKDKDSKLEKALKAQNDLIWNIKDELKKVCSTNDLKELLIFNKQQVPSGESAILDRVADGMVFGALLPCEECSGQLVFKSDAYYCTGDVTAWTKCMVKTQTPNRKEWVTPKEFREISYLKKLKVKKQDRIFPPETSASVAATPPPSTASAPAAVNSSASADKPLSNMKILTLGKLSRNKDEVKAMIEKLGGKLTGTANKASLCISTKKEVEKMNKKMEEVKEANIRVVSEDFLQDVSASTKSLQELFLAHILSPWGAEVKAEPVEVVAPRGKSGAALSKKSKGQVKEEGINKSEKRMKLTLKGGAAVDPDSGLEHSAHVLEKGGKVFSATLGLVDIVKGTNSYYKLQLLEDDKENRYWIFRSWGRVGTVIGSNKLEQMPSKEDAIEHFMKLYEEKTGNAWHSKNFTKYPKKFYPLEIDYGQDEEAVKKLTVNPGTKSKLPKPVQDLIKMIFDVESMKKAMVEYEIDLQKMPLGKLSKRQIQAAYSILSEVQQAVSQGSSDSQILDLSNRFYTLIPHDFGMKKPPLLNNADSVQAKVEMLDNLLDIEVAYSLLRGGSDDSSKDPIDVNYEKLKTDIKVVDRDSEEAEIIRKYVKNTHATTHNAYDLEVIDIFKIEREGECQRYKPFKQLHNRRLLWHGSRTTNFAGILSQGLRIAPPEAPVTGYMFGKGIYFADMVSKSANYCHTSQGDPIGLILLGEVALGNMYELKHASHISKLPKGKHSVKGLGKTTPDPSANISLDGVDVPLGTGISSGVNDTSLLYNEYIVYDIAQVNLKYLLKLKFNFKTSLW
In short: as §1

DYNC1H1 = target: T5, DYNC1H1 (human, UniProt Q14204 2-4646)
T5 construct: endogenous protein co-purified from WM115 lysate
In short: as §1

MYH9 = target: T6, MYH9 (human, UniProt P35579 2-1960)
T6 construct: endogenous protein co-purified from WM115 lysate
T6 sequence (P35579 2-1960 limits assumed): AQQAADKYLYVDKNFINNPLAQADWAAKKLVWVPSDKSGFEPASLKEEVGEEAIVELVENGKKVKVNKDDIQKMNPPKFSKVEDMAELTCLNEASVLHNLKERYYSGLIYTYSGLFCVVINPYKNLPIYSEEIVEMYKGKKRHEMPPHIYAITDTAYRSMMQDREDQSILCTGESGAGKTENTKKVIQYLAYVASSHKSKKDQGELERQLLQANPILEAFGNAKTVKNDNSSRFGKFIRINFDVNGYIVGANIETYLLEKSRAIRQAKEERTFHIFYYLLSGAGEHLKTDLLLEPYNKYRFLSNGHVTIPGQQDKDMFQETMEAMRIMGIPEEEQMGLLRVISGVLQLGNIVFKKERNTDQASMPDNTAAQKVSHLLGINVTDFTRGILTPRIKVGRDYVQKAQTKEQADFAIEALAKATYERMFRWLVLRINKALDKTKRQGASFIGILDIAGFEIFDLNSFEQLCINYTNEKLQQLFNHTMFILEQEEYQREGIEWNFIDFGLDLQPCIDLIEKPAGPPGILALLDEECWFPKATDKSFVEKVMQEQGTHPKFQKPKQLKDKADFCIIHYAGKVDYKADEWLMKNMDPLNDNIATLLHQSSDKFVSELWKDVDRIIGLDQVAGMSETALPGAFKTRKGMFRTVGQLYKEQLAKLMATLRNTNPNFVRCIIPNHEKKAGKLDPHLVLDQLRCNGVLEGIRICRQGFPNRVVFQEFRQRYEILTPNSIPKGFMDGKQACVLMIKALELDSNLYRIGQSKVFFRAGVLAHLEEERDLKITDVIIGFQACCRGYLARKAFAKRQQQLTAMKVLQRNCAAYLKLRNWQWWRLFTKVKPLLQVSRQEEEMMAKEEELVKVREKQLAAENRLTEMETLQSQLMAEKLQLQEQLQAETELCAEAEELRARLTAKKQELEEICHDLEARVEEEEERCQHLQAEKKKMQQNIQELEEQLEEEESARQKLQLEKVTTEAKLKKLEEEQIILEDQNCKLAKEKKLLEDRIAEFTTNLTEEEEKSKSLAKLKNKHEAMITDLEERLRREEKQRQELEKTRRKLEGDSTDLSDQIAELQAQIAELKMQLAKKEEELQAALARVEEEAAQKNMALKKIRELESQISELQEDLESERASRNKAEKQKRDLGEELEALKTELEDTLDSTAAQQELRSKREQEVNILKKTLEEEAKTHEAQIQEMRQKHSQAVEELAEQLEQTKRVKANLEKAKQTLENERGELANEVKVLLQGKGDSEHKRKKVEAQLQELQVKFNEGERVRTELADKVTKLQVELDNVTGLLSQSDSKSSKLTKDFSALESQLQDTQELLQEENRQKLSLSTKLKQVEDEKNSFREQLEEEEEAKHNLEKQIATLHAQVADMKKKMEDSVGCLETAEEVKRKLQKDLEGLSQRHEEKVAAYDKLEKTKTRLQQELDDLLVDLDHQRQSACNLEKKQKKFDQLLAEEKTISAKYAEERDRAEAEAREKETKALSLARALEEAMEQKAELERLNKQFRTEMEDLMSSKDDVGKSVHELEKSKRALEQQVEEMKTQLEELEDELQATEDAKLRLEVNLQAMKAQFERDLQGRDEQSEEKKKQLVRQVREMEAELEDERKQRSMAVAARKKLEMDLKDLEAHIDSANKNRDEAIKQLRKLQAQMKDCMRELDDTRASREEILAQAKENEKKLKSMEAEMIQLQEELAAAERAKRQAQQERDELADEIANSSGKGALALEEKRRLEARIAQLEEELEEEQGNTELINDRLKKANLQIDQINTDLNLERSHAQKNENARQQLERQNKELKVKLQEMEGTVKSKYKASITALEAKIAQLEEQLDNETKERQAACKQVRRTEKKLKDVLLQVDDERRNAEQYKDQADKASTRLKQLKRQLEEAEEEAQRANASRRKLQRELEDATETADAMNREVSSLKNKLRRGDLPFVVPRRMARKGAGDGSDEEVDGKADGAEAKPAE
In short: as §1

[1] = target: T7, PRMT5 (endogenous, WM115 cells) (human, UniProt O14744 2-637)
T7 construct: endogenous protein co-purified from WM115 lysate; also called Protein arginine methyltransferase 5
T7 sequence (O14744 2-637 limits assumed): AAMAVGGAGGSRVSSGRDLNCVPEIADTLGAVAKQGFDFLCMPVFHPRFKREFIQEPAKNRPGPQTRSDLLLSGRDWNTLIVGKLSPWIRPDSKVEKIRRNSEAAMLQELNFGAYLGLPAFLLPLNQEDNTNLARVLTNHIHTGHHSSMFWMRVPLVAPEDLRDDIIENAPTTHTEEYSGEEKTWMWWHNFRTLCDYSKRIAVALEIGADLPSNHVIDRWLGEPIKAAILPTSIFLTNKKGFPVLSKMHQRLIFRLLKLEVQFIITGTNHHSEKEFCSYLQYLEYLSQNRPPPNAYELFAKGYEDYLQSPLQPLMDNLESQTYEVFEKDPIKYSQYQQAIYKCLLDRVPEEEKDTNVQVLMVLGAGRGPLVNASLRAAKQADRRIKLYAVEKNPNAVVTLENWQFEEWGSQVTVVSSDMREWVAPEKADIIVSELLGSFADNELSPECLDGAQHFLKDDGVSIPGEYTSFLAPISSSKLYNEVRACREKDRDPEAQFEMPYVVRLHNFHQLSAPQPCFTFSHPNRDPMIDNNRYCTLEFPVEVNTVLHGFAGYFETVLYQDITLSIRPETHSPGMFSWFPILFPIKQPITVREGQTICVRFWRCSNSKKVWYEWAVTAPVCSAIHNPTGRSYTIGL
In short: as §1

Measured: binding result

B1: Flag-tagged SHARPIN (other, human, UniProt Q9H0F6 1-387, looked up)
chain: MAPPAGGAAAAASDLGSAAVLLAVHAAVRPLGAGPDAEAQLRRLQLSADPERPGRFRLELLGAGPGAVNLEWPLESVSYTIRGPTQHELQPPPGGPGTLSLHFLNPQEAQRWAVLVRGATVEGQNGSKSNSPPALGPEACPVSLPSPPEASTLKGPPPEADLPRSPGNLTEREELAGSLARAIAGGDEKGAAQVAAVLAQHRVALSVQLQEACFPPGPIRLQVTLEDAASAASAASSAHVALQVHPHCTVAALQEQVFSELGFPPAVQRWVIGRCLCVPERSLASYGVRQDGDPAFLYLLSAPREAPATGPSPQHPQKMDGELGRLFPPSLGLPPGPQPAASSLPSPLQPSWSCPSCTFINAPDRPGCEMCSTQRPCTWDPLAAAST
notes: also called Flag-SHARPIN; not shown: FLAG tag
binds: all assays above
